Results reported in patent publication US20220064276A1.

What follows are binders tested against human LRRC33-proTGFβ1 complex (human) (UniProt Q86YC3) (assay: Octet, antibody immobilized).
Sequence of human LRRC33-proTGFβ1 complex (human) (Q86YC3 19-650 limits assumed, chain 1 of 2): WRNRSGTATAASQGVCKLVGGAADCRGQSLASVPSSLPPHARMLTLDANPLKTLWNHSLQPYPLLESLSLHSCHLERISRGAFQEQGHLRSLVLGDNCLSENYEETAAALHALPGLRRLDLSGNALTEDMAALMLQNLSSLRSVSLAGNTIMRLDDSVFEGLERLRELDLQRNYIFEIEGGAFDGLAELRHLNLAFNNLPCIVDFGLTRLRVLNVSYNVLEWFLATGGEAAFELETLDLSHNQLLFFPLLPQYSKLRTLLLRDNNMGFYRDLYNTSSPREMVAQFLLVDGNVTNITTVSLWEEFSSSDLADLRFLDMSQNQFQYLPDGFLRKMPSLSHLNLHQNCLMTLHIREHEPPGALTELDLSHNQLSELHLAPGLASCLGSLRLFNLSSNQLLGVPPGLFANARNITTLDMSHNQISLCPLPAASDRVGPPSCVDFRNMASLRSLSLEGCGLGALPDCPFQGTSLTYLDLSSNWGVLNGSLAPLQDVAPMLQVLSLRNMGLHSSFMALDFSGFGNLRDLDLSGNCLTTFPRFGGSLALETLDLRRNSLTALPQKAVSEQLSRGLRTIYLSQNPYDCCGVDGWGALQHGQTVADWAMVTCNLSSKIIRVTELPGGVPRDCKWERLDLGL
Sequence of human LRRC33-proTGFβ1 complex (human) (chain, as listed by the source limits assumed, chain 2 of 2): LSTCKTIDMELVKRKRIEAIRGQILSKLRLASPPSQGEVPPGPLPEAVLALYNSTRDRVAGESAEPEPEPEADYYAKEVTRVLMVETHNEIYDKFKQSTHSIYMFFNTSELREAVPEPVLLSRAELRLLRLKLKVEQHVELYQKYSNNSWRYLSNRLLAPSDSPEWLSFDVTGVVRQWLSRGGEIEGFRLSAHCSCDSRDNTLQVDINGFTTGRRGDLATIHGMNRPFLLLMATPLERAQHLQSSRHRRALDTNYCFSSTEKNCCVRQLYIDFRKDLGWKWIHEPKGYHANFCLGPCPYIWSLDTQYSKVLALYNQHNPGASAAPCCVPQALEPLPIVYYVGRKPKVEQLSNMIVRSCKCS

| Binder | Response (nm) |
| --- | --- |
| SR-AB22 (antibody, IgG1, V domains shown) VH: QVQLVESGGGVVQPGRSLRLSCAASGFTFRSYVMHWVRQAPGKGLEWVAVISHEGSLKYYADSVKGRFTISRDNSKNTLYLQMNSLRAEDTAVYYCAVPRIAARRGGFGYWGQGTLVTVSS VL: NFMLTQPHSVSESPGKTVTISCTRSSGNIDNNYVQWYQQRPGSSPTTVIYEDNQRPSGVPDRFSGSIDSSSNSASLTISGLKTEDEADYYCQSYDSDNQGVVFGGGTKLTVL | 0.133 |

What follows are binders tested against LTBP-proTGFβ1 in the LN229 CAGA12 assay of Table 20 (endogenous or over-expressed murine LTBP1 not stated) (assay: cell-based or functional assay).

| Binder | IC50 (CAGA12 luciferase) [nM] |
| --- | --- |
| SR-AB47-HuFab (Fab, V domains shown) VH: QVQLVESGGGVVQPGRSLRLSCAASGFTFRSYVMHWVRQAPGKGLEWVAVISHEGSGKYYADSVKGRFTISRDNSKNTLYLQMNSLRAEDTAVYYCARPRIAARRGGFGSWGQGTLVTVSS VL: NFMLTQPHSVSESPGKTVTISCTRSSGNIDYNYVQWYQQRPGSSPTTVIYEDNVRPSGVPDRFSGSIDSSSNSASLTISGLKTEDEADYYCQSYDYDNQAVVFGGGTKLTVL | 0.186 |
| SR-AB49-HuFab (Fab, V domains shown) VH: QVQLVESGGGVVQPGRSLRLSCAASGFTFRSYVMHWVRQAPGKGLEWVAVISHEGSGKYYADSVKGRFTISRDNSKNTLYLQMNSLRAEDTAVYYCARPRIAARRGGFGSWGQGTLVTVSS VL: NFMLTQPHSVSESPGKTVTISCTRSSGNIDYNYVQWYQQRPGSSPTTVIYEDNVRPSGVPDRFSGSIDSSSNSASLTISGLKTEDEADYYCQGYDWDTQGVVFGGGTKLTVL | 1.02 |
| SR-AB59-HuFab (Fab, V domains shown) VH: QVQLVESGGGVVQPGRSLRLSCAASGFTFRSYVMHWVRQAPGKGLEWVAVISHEGSGKYYADSVKGRFTISRDNSKNTLYLQMNSLRAEDTAVYYCALPRIAARRGGFGTWGQGTLVTVSS VL: NFMLTQPHSVSESPGKTVTISCTRSSGNIDYNYVQWYQQRPGSSPTTVIYEDNVRPSGVPDRFSGSIDSSSNSASLTISGLKTEDEADYYCQSYDYDNQAVVFGGGTKLTVL | 0.195 |
| SR-AB43-HuFab (Fab, V domains shown) VH: QVQLVESGGGVVQPGRSLRLSCAASGFTFRSYVMHWVRQAPGKGLEWVAVISHEGSLKYYADSVKGRFTISRDNSKNTLYLQMNSLRAEDTAVYYCARPRIAARRGGFGYWGQGTLVTVSS VL: NFMLTQPHSVSESPGKTVTISCTRSSGNIDYNYVQWYQQRPGSSPTTVIYEDNVRPSGVPDRFSGSIDSSSNSASLTISGLKTEDEADYYCQSYDSDNQRVVFGGGTKLTVL | 1.08 |
| SR-AB57-HuFab (Fab, V domains shown) VH: QVQLVESGGGVVQPGRSLRLSCAASGFTFRSYVMHWVRQAPGKGLEWVAVISHEGSGKYYADSVKGRFTISRDNSKNTLYLQMNSLRAEDTAVYYCALPRIAARRGGFGSWGQGTLVTVSS VL: NFMLTQPHSVSESPGKTVTISCTRSSGNIDYNYVQWYQQRPGSSPTTVIYEDNVRPSGVPDRFSGSIDSSSNSASLTISGLKTEDEADYYCQGYDWDTQGVVFGGGTKLTVL | 0.775 |
| SR-AB61-HuFab (Fab, V domains shown) VH: QVQLVESGGGVVQPGRSLRLSCAASGFTFRSYVMHWVRQAPGKGLEWVAVISHEGSGKYYADSVKGRFTISRDNSKNTLYLQMNSLRAEDTAVYYCALPRIAARRGGFGTWGQGTLVTVSS VL: NFMLTQPHSVSESPGKTVTISCTRSSGNIDYNYVQWYQQRPGSSPTTVIYEDNVRPSGVPDRFSGSIDSSSNSASLTISGLKTEDEADYYCQGYDWDTQGVVFGGGTKLTVL | 0.47 |
| SR-AB51-HuFab (Fab, V domains shown) VH: QVQLVESGGGVVQPGRSLRLSCAASGFTFRSYVMHWVRQAPGKGLEWVAVISHEGSGKYYADSVKGRFTISRDNSKNTLYLQMNSLRAEDTAVYYCARPRIAARRGGFGTWGQGTLVTVSS VL: NFMLTQPHSVSESPGKTVTISCTRSSGNIDYNYVQWYQQRPGSSPTTVIYEDNVRPSGVPDRFSGSIDSSSNSASLTISGLKTEDEADYYCQSYDYDNQAVVFGGGTKLTVL | 0.535 |
| SR-AB56-HuFab (Fab, V domains shown) VH: QVQLVESGGGVVQPGRSLRLSCAASGFTFRSYVMHWVRQAPGKGLEWVAVISHEGSGKYYADSVKGRFTISRDNSKNTLYLQMNSLRAEDTAVYYCALPRIAARRGGFGSWGQGTLVTVSS VL: NFMLTQPHSVSESPGKTVTISCTRSSGNIDYNYVQWYQQRPGSSPTTVIYEDNVRPSGVPDRFSGSIDSSSNSASLTISGLKTEDEADYYCQSYDYDTQGVVFGGGTKLTVL | 0.439 |
| SR-AB46-HuFab (Fab, V domains shown) VH: QVQLVESGGGVVQPGRSLRLSCAASGFTFRSYVMHWVRQAPGKGLEWVAVISHEGSGKYYADSVKGRFTISRDNSKNTLYLQMNSLRAEDTAVYYCARPRIAARRGGFGSWGQGTLVTVSS VL: NFMLTQPHSVSESPGKTVTISCTRSSGNIDYNYVQWYQQRPGSSPTTVIYEDNVRPSGVPDRFSGSIDSSSNSASLTISGLKTEDEADYYCQSYDSDNQRVVFGGGTKLTVL | 0.495 |
| SR-AB23 Fab (Fab, V domains shown) VH: QVQLVESGGGVVQPGRSLRLSCAASGFTFRSYVMHWVRQAPGKGLEWVAVISHEGSLKYYADSVKGRFTISRDNSKNTLYLQMNSLRAEDTAVYYCARPRIAARRGGFGYWGQGTLVTVSS VL: NFMLTQPHSVSESPGKTVTISCTRSSGNIDNNYVQWYQQRPGSSPTTVIYEDNQRPSGVPDRFSGSIDSSSNSASLTISGLKTEDEADYYCQSYDSDNQGVVFGGGTKLTVL | 8.53 |
| SR-AB53-HuFab (Fab, V domains shown) VH: QVQLVESGGGVVQPGRSLRLSCAASGFTFRSYVMHWVRQAPGKGLEWVAVISHEGSGKYYADSVKGRFTISRDNSKNTLYLQMNSLRAEDTAVYYCARPRIAARRGGFGTWGQGTLVTVSS VL: NFMLTQPHSVSESPGKTVTISCTRSSGNIDYNYVQWYQQRPGSSPTTVIYEDNVRPSGVPDRFSGSIDSSSNSASLTISGLKTEDEADYYCQGYDWDTQGVVFGGGTKLTVL | 1.18 |
| SR-AB50-HuFab (Fab, V domains shown) VH: QVQLVESGGGVVQPGRSLRLSCAASGFTFRSYVMHWVRQAPGKGLEWVAVISHEGSGKYYADSVKGRFTISRDNSKNTLYLQMNSLRAEDTAVYYCARPRIAARRGGFGTWGQGTLVTVSS VL: NFMLTQPHSVSESPGKTVTISCTRSSGNIDYNYVQWYQQRPGSSPTTVIYEDNVRPSGVPDRFSGSIDSSSNSASLTISGLKTEDEADYYCQSYDSDNQRVVFGGGTKLTVL | 11 |
| SR-AB58-HuFab (Fab, V domains shown) VH: QVQLVESGGGVVQPGRSLRLSCAASGFTFRSYVMHWVRQAPGKGLEWVAVISHEGSGKYYADSVKGRFTISRDNSKNTLYLQMNSLRAEDTAVYYCALPRIAARRGGFGTWGQGTLVTVSS VL: NFMLTQPHSVSESPGKTVTISCTRSSGNIDYNYVQWYQQRPGSSPTTVIYEDNVRPSGVPDRFSGSIDSSSNSASLTISGLKTEDEADYYCQSYDSDNQRVVFGGGTKLTVL | 4.86 |
| SR-AB52-HuFab (Fab, V domains shown) VH: QVQLVESGGGVVQPGRSLRLSCAASGFTFRSYVMHWVRQAPGKGLEWVAVISHEGSGKYYADSVKGRFTISRDNSKNTLYLQMNSLRAEDTAVYYCARPRIAARRGGFGTWGQGTLVTVSS VL: NFMLTQPHSVSESPGKTVTISCTRSSGNIDYNYVQWYQQRPGSSPTTVIYEDNVRPSGVPDRFSGSIDSSSNSASLTISGLKTEDEADYYCQSYDYDTQGVVFGGGTKLTVL | 0.459 |
| SR-AB54-HuFab (Fab, V domains shown) VH: QVQLVESGGGVVQPGRSLRLSCAASGFTFRSYVMHWVRQAPGKGLEWVAVISHEGSGKYYADSVKGRFTISRDNSKNTLYLQMNSLRAEDTAVYYCALPRIAARRGGFGSWGQGTLVTVSS VL: NFMLTQPHSVSESPGKTVTISCTRSSGNIDYNYVQWYQQRPGSSPTTVIYEDNVRPSGVPDRFSGSIDSSSNSASLTISGLKTEDEADYYCQSYDSDNQRVVFGGGTKLTVL | 5.87 |
| SR-AB48-HuFab (Fab, V domains shown) VH: QVQLVESGGGVVQPGRSLRLSCAASGFTFRSYVMHWVRQAPGKGLEWVAVISHEGSGKYYADSVKGRFTISRDNSKNTLYLQMNSLRAEDTAVYYCARPRIAARRGGFGSWGQGTLVTVSS VL: NFMLTQPHSVSESPGKTVTISCTRSSGNIDYNYVQWYQQRPGSSPTTVIYEDNVRPSGVPDRFSGSIDSSSNSASLTISGLKTEDEADYYCQSYDYDTQGVVFGGGTKLTVL | 0.523 |
| SR-AB41 Fab (Fab, V domains shown) VH: QVQLVESGGGVVQPGRSLRLSCAASGFTFRSYVMHWVRQAPGKGLEWVAVISHEGSLKYYADSVKGRFTISRDNSKNTLYLQMNSLRAEDTAVYYCARPRIAARRGGFGYWGQGTLVTVSS VL: NFMLTQPHSVSESPGKTVTISCTRSSGNIDNNYVQWYQQRPGSSPTTVIYEDNQRPSGVPDRFSGSIDSSSNSASLTISGLKTEDEADYYCQSYDYDNQAVVFGGGTKLTVL | 0.486 |
| SR-AB60-HuFab (Fab, V domains shown) VH: QVQLVESGGGVVQPGRSLRLSCAASGFTFRSYVMHWVRQAPGKGLEWVAVISHEGSGKYYADSVKGRFTISRDNSKNTLYLQMNSLRAEDTAVYYCALPRIAARRGGFGTWGQGTLVTVSS VL: NFMLTQPHSVSESPGKTVTISCTRSSGNIDYNYVQWYQQRPGSSPTTVIYEDNVRPSGVPDRFSGSIDSSSNSASLTISGLKTEDEADYYCQSYDYDTQGVVFGGGTKLTVL | 0.742 |
| SR-AB55-HuFab (Fab, V domains shown) VH: QVQLVESGGGVVQPGRSLRLSCAASGFTFRSYVMHWVRQAPGKGLEWVAVISHEGSGKYYADSVKGRFTISRDNSKNTLYLQMNSLRAEDTAVYYCALPRIAARRGGFGSWGQGTLVTVSS VL: NFMLTQPHSVSESPGKTVTISCTRSSGNIDYNYVQWYQQRPGSSPTTVIYEDNVRPSGVPDRFSGSIDSSSNSASLTISGLKTEDEADYYCQSYDYDNQAVVFGGGTKLTVL | 0.536 |
| SR-AB42-HuFab (Fab, V domains shown) VH: QVQLVESGGGVVQPGRSLRLSCAASGFTFRSYVMHWVRQAPGKGLEWVAVISHEGSLKYYADSVKGRFTISRDNSKNTLYLQMNSLRAEDTAVYYCARPRIAARRGGFGYWGQGTLVTVSS VL: NFMLTQPHSVSESPGKTVTISCTRSSGNIDNNYVQWYQQRPGSSPTTVIYEDNQRPSGVPDRFSGSIDSSSNSASLTISGLKTEDEADYYCQSYDYDTQGVVFGGGTKLTVL | 0.667 |
